In US8367368B2, “D-serine dehydratase and use thereof” (National University Corporation Nagoya University, priority 2006, dated 2013):
Entries after “also recorded” stand apart in the source; their conditions may differ.

How the values were obtained:
Type in all cases: biochemical
[1] = target: T1, novel D-serine dehydratase (Saccharomyces cerevisiae, UniProt P53095); experiment: Influence of metal ion and EDTA on enzymatic activity, Nessler method
T1 construct: made in house; host or cells: Escherichia coli BL21 (DE3)
T1 sequence (P53095 1-428): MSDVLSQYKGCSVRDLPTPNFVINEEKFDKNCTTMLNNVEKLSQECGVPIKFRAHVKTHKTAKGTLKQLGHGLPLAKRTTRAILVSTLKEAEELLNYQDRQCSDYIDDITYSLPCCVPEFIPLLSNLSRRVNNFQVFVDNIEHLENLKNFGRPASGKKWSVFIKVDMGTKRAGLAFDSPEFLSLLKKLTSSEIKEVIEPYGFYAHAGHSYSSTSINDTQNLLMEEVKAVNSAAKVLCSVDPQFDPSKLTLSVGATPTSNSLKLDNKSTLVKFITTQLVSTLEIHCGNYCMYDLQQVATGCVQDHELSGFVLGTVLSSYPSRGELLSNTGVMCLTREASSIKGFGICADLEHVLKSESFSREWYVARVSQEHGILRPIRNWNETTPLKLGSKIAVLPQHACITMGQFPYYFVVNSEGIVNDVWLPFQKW
Procedure: (§1) To a reaction solution (final volume: 200 μl) containing 50 mM of HEPES-NaOH buffer (pH 8.0), […] of pyridoxal-5′-phosphate and 10 mM of D-serine, an appropriate amount of D-serine dehydratase was added and incubated at 30° C. Thereafter, trichloroacetic acid (final concentration: 5%) was added to stop the reaction. Ammonia in the centrifuged supernatant was quantified by using a Nessler reagent.
The influence and effect of metal ion on the activity of the novel enzyme were examined by the following method. The compounds shown in FIG. 5 were incubated with untreated novel enzyme and 2 mM EDTA, and then dialyzed with Tris buffer solution. The D-serine dehydratase activity of the novel enzyme was measured by a Nessler method in the presence of 0.05 mM or 0.5 mM of any of KCl, NaCl, MnCl2, MgCl2, CaCl2, NiSO4, CuSO4 and ZnCl2.

[2] = Effect of pH on enzymatic activity, Nessler method; conditions: MOPS, MES, HEPES, Tris buffers
Procedure: as §1
The relationship between the activity of the novel enzyme and pH at the reaction was examined by the following method. In the Nessler method, buffer solution was changed to MOPS (pH 6.5-8.0), MES (pH 6.0-6.5), HEPES (pH 7.0-8.5), and Tris (pH 7.5-9.0), respectively. By using the reaction solution, the D-serine dehydratase activity of the novel enzyme was measured.

[3] = Dynamic characteristic (reciprocal plot of rate against D-serine concentration), Nessler method; conditions: substrate D-serine
Procedure: as §1
The dynamic characteristic of the novel enzyme was examined by the following method. In the Nessler method, the concentration of D-serine was changed and the D-serine dehydratase activity of the novel enzyme in the respective concentrations of D-serine was measured. The inverse number of the obtained rate was plotted to the inverse number of the D-serine concentration. Then, the maximum rate was calculated from the inverse number of the y section and Km value was calculated from the inverse number of the x section.

[4] = D-serine dehydratase activity of the purified enzyme, Nessler method; conditions: 10 mM D-serine, HEPES-NaOH pH 8.0, 30° C.
Procedure: as §1, with “The activity of serine dehydratase was measured as follows: ammonia as a reaction product was measured by a Nessler method or pyruvic acid as a reaction product was measured by coupling with lactate dehydrogenase and by oxidation of NADH. Hereinafter, outline of each method is shown. To” for “To”

[5] = Substrate-specificity by the Nessler method, L-serine as substrate; conditions: same conditions as D-serine
Procedure: (§2) To a reaction solution (final volume: 200 μl) containing 50 mM of HEPES-NaOH buffer (pH 8.0), […] of pyridoxal-5′-phosphate and 10 mM of D-serine, an appropriate amount of D-serine dehydratase was added and incubated at 30° C. Thereafter, trichloroacetic acid (final concentration: 5%) was added to stop the reaction. Ammonia in the centrifuged supernatant was quantified by using a Nessler reagent. The substrate-specificity of the novel enzyme was examined by the following method. That is to say, as the substrate, L-serine and D-threonine in addition to D-serine were prepared, and the reactivity of the enzyme with respect to each substrate was examined by the Nessler method. Note here that the reactivity of the enzyme with respect to L-serine or D-threonine was examined by the Nessler method in the same conditions as in the case of D-Serine except that L-serine (Wako Pure Chemical Industries, Ltd.) or D-threonine (Wako Pure Chemical Industries, Ltd.) was used as a substrate.

[6] = Substrate-specificity by the Nessler method, D-threonine as substrate; conditions: same conditions as D-serine
Procedure: as §2

O=C(O)CN(CCN(CC(=O)O)CC(=O)O)CC(=O)O [EDTA]
effect of EDTA on enzymatic activity ([1]; incubated with 2 mM EDTA, then dialyzed with Tris buffer): mostly deactivated; also recorded: inhibited

[Cl-].[Cl-].[Zn+2] [zinc, ZnCl2]
effect of zinc on enzymatic activity ([1]; addition of zinc to EDTA-treated enzyme, low concentration): activated | zinc concentration at which the enzymatic activity was increased most ([1]; same experiment while changing the zinc concentration): 0.005 mM

B1: novel D-serine dehydratase: protein of Saccharomyces cerevisiae, YGL196W (SEQ ID NO: 1), with D-serine dehydratase activity; recombinant, His-tagged, expressed in Escherichia coli (protein, listed as Saccharomyces cerevisiae)
chain: T1 sequence (P53095 1-428)
modifications: His tag
notes: recombinant, His-tagged, expressed in Escherichia coli
optimum pH [2]: around 8 | maximum rate ([3]; Example text): 4.2 µmol/min/mg | Vmax value ([3]; FIG. 7 legend): 4.2 µmol/min/mg | Km ([3]; read-out: Km value with respect to D-serine): 460 µM | specific activity [4]: 3.7 gmol/min/mg | reactivity with respect to L-serine [5]: does not react with L-serine at all | reactivity with respect to L-serine ([5]; listed as novel enzyme): no reactivity | reactivity to D-threonine when the reactivity to D-serine was 100% [6]: 5% | reactivity with respect to D-threonine [6]: extremely low | reactivity with respect to D-threonine ([6]; listed as novel enzyme): low reaction
